US20230151111A1 (AKESO BIOPHARMA, published 2023)

Experiments:
[1] = molecular target: T1, PD-1-mFc (human, UniProt Q15116 25-170, limits assumed); test: ELISA, PD-1-mFc coated
T1 construct: also called human PD-1-mFc
Procedure: A microplate was coated with PD-1-mFc at 0.5 μg/mL and incubated at 4° C. overnight. Then the microplate coated with antigens was washed once with PBST, and then blocked with a PBS solution containing 1% BSA as blocking solution at 37° C. for 2 h. After blocking, the microplate was washed 3 times with PBST. The microplate containing the test antibodies was incubated at 37° C. for 30 min, and then washed 3 times with PBST. […] After incubation, the plate was washed 4 times with PBST, TMB (Neogen, 308177) was added in the dark for chromogenesis for 5 min, and then a stop solution was added to terminate chromogenic reaction. The microplate was put into a microplate reader immediately, and the OD value of each well in the microplate was read at 450 nm. The data were analyzed and processed by SoftMax Pro 6.2.1,

[2] = molecular target: T2, PD-1 on 293T-PD1 cell surface (human, UniProt Q15116 25-288); test: flow cytometry, 293T-PD1 cells; antibody 33.33 nM
T2 construct: whole, on cells
T2 sequence (Q15116 25-288): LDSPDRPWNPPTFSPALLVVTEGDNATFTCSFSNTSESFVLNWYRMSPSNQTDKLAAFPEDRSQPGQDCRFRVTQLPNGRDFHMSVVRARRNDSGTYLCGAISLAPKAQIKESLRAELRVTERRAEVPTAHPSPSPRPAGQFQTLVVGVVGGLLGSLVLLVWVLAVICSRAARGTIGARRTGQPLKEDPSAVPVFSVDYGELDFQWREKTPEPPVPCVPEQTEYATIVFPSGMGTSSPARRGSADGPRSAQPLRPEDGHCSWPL
Procedure: (§1) 500 μL of PBSA was added, and the mixture was centrifuged at 5600 rpm for 5 min to remove the supernatant. […] The system was mixed gently and uniformly, and then was incubated on ice for 1 h. Then 500 μL of PBSA was added, and the mixture was centrifuged at 5600 rpm for 5 min to remove the supernatant. […] 500 μL of PBSA was added, and the mixture was centrifuged at 5600 rpm for 5 min to remove the supernatant. At last, 200 μL of PBSA was added to resuspend cell precipitates, and the mixture was transferred to a flow tube for FACSCalibur detection.

[3] = molecular target: T2, PD-1 on 293T-PD1 cell surface; test: flow cytometry, 293T-PD1 cells; antibody 100.00 nM
Procedure: as §1

[4] = molecular target: T2, PD-1 on 293T-PD1 cell surface; test: flow cytometry, 293T-PD1 cells; antibody 0.14 nM
Procedure: as §1

[5] = molecular target: T2, PD-1 on 293T-PD1 cell surface; test: flow cytometry, 293T-PD1 cells; antibody 0.05 nM
Procedure: as §1

[6] = molecular target: T2, PD-1 on 293T-PD1 cell surface; test: flow cytometry, 293T-PD1 cells; antibody 1.23 nM
Procedure: as §1

[7] = molecular target: T2, PD-1 on 293T-PD1 cell surface; test: flow cytometry, 293T-PD1 cells; antibody 0.41 nM
Procedure: as §1

[8] = molecular target: T2, PD-1 on 293T-PD1 cell surface; test: flow cytometry, 293T-PD1 cells; antibody 3.70 nM
Procedure: as §1

[9] = molecular target: T2, PD-1 on 293T-PD1 cell surface; test: flow cytometry, 293T-PD1 cells
Procedure: as §1

[10] = molecular target: T1, PD-1-mFc; test: BLI (Fortebio), antibody on AHC sensor, PD-1-mFc 0.6-50 nM, 37 C
Procedure: The sample dilution buffer was PBST, 0.1% BSA, pH 7.4. The antibody was immobilized on an AHC sensor at a concentration of 5 μg/mL with an immobilization height of about 0.4 nm. The sensor was equilibrated in a buffer for 60 s, and the binding of the immobilized antibody on the sensor to the antigen PD-1-mFc at concentrations of 0.6-50 nM (three-fold dilution) was determined in 120 s. The protein was dissociated in the buffer for 180 s. The detection temperature was 37° C., the detection frequency was 0.3 Hz, and the sample plate shaking rate was 1000 rpm. The data were analyzed by 1:1 model fitting to obtain affinity constants.

[11] = molecular target: T3, human PD-1-mFc-biotin (human, UniProt Q15116 25-170, limits assumed, biotin label, site not stated); test: competitive ELISA, blocking of PD-1-mFc-biotin binding to coated PD-L1-mFc
T3 sequence (Q15116 other isoform, or with tags, fused parts or gaps limits assumed): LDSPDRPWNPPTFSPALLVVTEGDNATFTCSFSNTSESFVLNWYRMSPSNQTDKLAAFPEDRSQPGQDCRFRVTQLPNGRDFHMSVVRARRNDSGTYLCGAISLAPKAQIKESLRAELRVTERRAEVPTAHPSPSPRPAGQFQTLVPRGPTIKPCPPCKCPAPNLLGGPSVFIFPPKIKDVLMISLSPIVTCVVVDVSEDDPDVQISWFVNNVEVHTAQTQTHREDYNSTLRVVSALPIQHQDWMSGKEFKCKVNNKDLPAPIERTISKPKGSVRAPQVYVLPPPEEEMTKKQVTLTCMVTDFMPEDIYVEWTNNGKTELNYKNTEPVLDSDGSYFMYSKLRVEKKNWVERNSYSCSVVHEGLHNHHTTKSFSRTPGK
Procedure: (§2) After incubation, the microplate was blocked with a PBS solution containing 1% BSA at 37° C. for 2 h. After blocking, the plate was washed three times and dried. The antibody was serially diluted to 7 concentrations in a gradient ratio of 1:3 on a dilution plate with 10 μg/mL as the starting concentration, and a blank control was set. […] Then the mixture after reaction was added to the coated microplate, and the microplate was incubated for at 37° C. for 30 min. After incubation, the plate was washed three times with PBST and dried. SA-HRP (KPL, 14-30-00) working solution was added, and the plate was incubated at 37° C. for 30 min. After incubation, the plate was washed four times and patted dry. Then TMB (Neogen, 308177) was added in the dark for chromogenesis for 5 min, and a stop solution was added to terminate chromogenic reaction. Then the microplate was put into a microplate reader immediately, and the OD value of each well in the microplate was read at 450 nm. The data were analyzed and processed by SoftMax Pro 6.2.1.

[12] = molecular target: T2, PD-1 on 293T-PD1 cell surface; test: flow cytometry, 293T-PD1 cells; antibody 11.11 nM
Procedure: as §1

[13] = molecular target: T4, human NT5E-Biotin (human, UniProt P21589 27-552, limits assumed, biotin label, site not stated); test: ELISA, NT5E-biotin on streptavidin
T4 construct: Captured on streptavidin-coated plates; also called human NTSE-Biotin
T4 sequence (looked up): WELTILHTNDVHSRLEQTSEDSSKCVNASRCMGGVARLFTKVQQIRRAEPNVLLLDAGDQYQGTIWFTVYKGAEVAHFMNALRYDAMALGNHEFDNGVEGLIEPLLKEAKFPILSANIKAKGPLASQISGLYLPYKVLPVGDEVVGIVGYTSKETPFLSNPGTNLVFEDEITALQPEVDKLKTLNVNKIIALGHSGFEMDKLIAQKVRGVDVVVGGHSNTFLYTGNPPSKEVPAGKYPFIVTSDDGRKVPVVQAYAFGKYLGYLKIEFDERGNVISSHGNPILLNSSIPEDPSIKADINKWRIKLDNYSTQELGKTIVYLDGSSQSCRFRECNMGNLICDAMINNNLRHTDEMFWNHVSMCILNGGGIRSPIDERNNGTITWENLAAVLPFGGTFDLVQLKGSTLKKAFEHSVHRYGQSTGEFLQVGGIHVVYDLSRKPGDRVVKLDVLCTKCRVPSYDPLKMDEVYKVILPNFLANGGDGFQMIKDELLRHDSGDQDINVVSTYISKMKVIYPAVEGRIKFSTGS
Procedure: A microplate was coated with streptavidin at 2 μg/mL and then incubated at 4° C. overnight. After incubation, the microplate coated with streptavidin was washed once with PBST, and blocked with a PBS solution containing 1% BSA as a microplate blocking solution at 37° C. for 2 h. After blocking, the microplate was washed 3 times with PBST. Then, 0.5 μg/mL antigen human NTSE-Biotin was added and incubated at 37° C. for 30 min. Then, the plate was washed 3 times with PBST. The antibodies serially diluted with PBST solution (the dilution gradients for the antibody are shown in Table 3) were added to wells of the microplate. The microplate containing the test antibodies was incubated at 37° C. for 30 min, and then washed 3 times with PBST. […] After incubation, the plate was washed 4 times with PBST, TMB (Neogen, 308177) was added in the dark for chromogenesis for 5 min, and then a stop solution was added to terminate chromogenic reaction. The microplate was put into a microplate reader immediately, and the OD value of each well in the microplate was read at 450 nm. The data were analyzed and processed by SoftMax Pro 6.2.1.

[14] = molecular target: T3, human PD-1-mFc-biotin; test: competitive ELISA, competitor coated PD-L1-mFc; antibody 5 ug/mL diluted 1:3
Procedure: as §2

T1 sequence (Q15116 other isoform, or with tags, fused parts or gaps limits assumed): as the sequence (Q15116 other isoform, or with tags, fused parts or gaps limits assumed) above

B1: 14C12H1L1 (antibody, human IgG1, kappa)
heavy: not shown
light: DIQMTQSPSSMSASVGDRVTFTCRASQDINTYLSWFQQKPGKSPKTLIYRANRLVSGVPSRFSGSGSGQDYTLTISSLQPEDMATYYCLQYDEFPLTFGAGTKLELKRTVAAPSVFIFPPSDEQLKSGTASVVCLLNNFYPREAKVQWKVDNALQSGNSQESVTEQDSKDSTYSLSSTLTLSKADYEKHKVYACEVTHQGLSSPVTKSFNRGEC
notes: Humanized anti-PD-1 IgG1/kappa
For B1, the EC50 [1] was 0.033 nM, the FACS signal [2] was 1170 and the FACS signal [3] was 1500. It also gave an FACS signal [4] of 57.7, an FACS signal [5] of 35.7 and an FACS signal [6] of 438. The FACS signal [7] was 129, the FACS signal [8] was 975 and the EC50 [9] was 2.11 nM. It also gave a Kd [10] of 0.164 nM.

B2: P1D7V02R (bispecific antibody, human IgG1, kappa)
heavy: not shown
light: DIQMTQSPSSMSASVGDRVTFTCRASQDINTYLSWFQQKPGKSPKTLIYRANRLVSGVPSRFSGSGSGQDYTLTISSLQPEDMATYYCLQYDEFPLTFGAGTKLELKRTVAAPSVFIFPPSDEQLKSGTASVVCLLNNFYPREAKVQWKVDNALQSGNSQESVTEQDSKDSTYSLSSTLTLSKADYEKHKVYACEVTHQGLSSPVTKSFNRGEC
notes: Morrison form IgG-scFv
B2 was tested, and the EC50 [11] was 1.33 nM, the EC50 [1] was 0.078 nM and the FACS signal [2] was 405. It also gave an FACS signal [12] of 426, an FACS signal [3] of 301 and an EC50 [13] of 0.23 nM. For the same binder, the FACS signal [4] was 43, the FACS signal [5] was 23.4 and the FACS signal [6] was 218. The FACS signal [7] was 108, the FACS signal [8] was 404 and the OD450 [14] was 0.051 OD. The EC50 [9] was 1.07 nM.
